# Where “and” joins values, the source holds several entries; their conditions need not be identical. Identical values can stand only once. Non-standard residues stand in square brackets, D forms with d. No end group written: not given here. NMeI = CC[C@H](C)[C@H](NC)C(=O)O; hArg = N=C(N)NCCCC[C@H](N)C(=O)O
# Biological target: T1, Nat1 (LTIITLE) (also: TFA salt)
# T1 peptide: LTIITLE
# Test: cell-based or functional assay
binder,measurement,value
LR[NMeI]KYHR [LR(N-Me)IKYHR],"IC50, Thiofiavin T aggregation assay",334 nM
WYIRTYH,"IC50, Thiofiavin T aggregation assay",287 nM
IRIRRYA,"IC50, Thiofiavin T aggregation assay",44 nM
[dY][dW][dQ][dW][dR][dQ][dS] [ywqwrqs],"IC50, Thiofiavin T aggregation assay",338 nM
[dY][dQ][dW][dQ][dY][dQ][dR] [yqwqyqr],"IC50, Thiofiavin T aggregation assay",354 nM
[dK][dQ][dW][dY][dH][dW][dR] [kqwyhwr],"IC50, Thiofiavin T aggregation assay",252 nM
IYIYHQR,"IC50, Thiofiavin T aggregation assay",269 nM
[dR][dQ][dH][dY][dH][dW][dR] [rqhyhwr],"IC50, Thiofiavin T aggregation assay",296 nM
WYIRLTH,"IC50, Thiofiavin T aggregation assay",369 nM
LTIRTWH,"IC50, Thiofiavin T aggregation assay",295 nM
WYIRLWK,"IC50, Thiofiavin T aggregation assay",262 nM
[dA][dW][dR][dW][dH][dR][dR] [awrwhrr],"IC50, Thiofiavin T aggregation assay",267 nM
I[hArg]I[hArg]RWR [Ile-homoArg-Ile-homoArg-Arg-Trp-Arg],"IC50, Thiofiavin T aggregation assay",49 nM
LLIKAHR,"IC50, Thiofiavin T aggregation assay",258 nM
LYIFRHT,"IC50, Thiofiavin T aggregation assay",363 nM
[dW][dW][dR][dR][dH][dH][dR] [wwrrhhr],"IC50, Thiofiavin T aggregation assay",247 nM
LTIKLWH,"IC50, Thiofiavin T aggregation assay",260 nM and 232 nM
LLIKYAR,"IC50, Thiofiavin T aggregation assay",301 nM
LYIRTYH,"IC50, Thiofiavin T aggregation assay",257 nM and 463 nM
WYIRLWH,"IC50, Thiofiavin T aggregation assay",288 nM
LTIRLTH,"IC50, Thiofiavin T aggregation assay",329 nM
LRIRHVK,"IC50, Thiofiavin T aggregation assay",246 nM
LYIRTWH,"IC50, Thiofiavin T aggregation assay",302 nM
[dR][dQ][dM][dQ][dY][dR][dR] [rqmqyrr],"IC50, Thiofiavin T aggregation assay",236 nM
LLIKYHA,"IC50, Thiofiavin T aggregation assay",234 nM
[dS][dW][dR][dW][dH][dH][dR] [swrwhhr],"IC50, Thiofiavin T aggregation assay",301 nM
IRIARYR,"IC50, Thiofiavin T aggregation assay",44 nM
LYIRHK,"IC50, Thiofiavin T aggregation assay",316 nM
TLIIYHR,"IC50, Thiofiavin T aggregation assay",357 nM
WTRIYLH,"IC50, Thiofiavin T aggregation assay",240 nM
RLYIRLS,"IC50, Thiofiavin T aggregation assay",284 nM
[dK][dR][dW][dR][dH][dQ][dR] [krwrhqr],"IC50, Thiofiavin T aggregation assay",245 nM
[dR][dF][dY][dR][dH][dH][dR] [rfyrhhr],"IC50, Thiofiavin T aggregation assay",244 nM
[dF][dW][dR][dA][dH][dR][dR] [fwrahrr],"IC50, Thiofiavin T aggregation assay",293 nM
[dF][dW][dR][dH][dK][dH][dR] [fwrhkhr],"IC50, Thiofiavin T aggregation assay",264 nM and 161 nM
[dF][dA][dR][dW][dH][dR][dR] [farwhrr],"IC50, Thiofiavin T aggregation assay",287 nM
[dS][dH][dW][dR][dR][dH][dR] [shwrrhr],"IC50, Thiofiavin T aggregation assay",338 nM
IRIRRAA,"IC50, Thiofiavin T aggregation assay",248 nM
IRIRHYR,"IC50, Thiofiavin T aggregation assay",14 nM
WTRILWH,"IC50, Thiofiavin T aggregation assay",398 nM
[dH][dW][dR][dW][dR][dW][dR] [hwrwrwr],"IC50, Thiofiavin T aggregation assay",245 nM
[dH][dW][dR][dW][dL][dR][dR] [hwrwlrr],"IC50, Thiofiavin T aggregation assay",43 nM
[dF][dW][dR][dW][dH][dA][dR] [fwrwhar],"IC50, Thiofiavin T aggregation assay",245 nM
LLIKYHR,"IC50, Thiofiavin T aggregation assay",248 nM and 489 nM
[dF][dW][dA][dW][dH][dR][dR] [fwawhrr],"IC50, Thiofiavin T aggregation assay",239 nM
